The source of these data is the supplement of paper PMC11246515.

The data set can be described thus: total protein half-life in vivo (active degradation + dilution); higher = more stable protein.
Where [1] appears, read: E. coli NCM3722 delta-clpP delta-lon delta-hslV, growth: N-lim chemostat, doubling time 6 h.
[2] abbreviates: E. coli NCM3722 delta-clpP, growth: N-lim chemostat, doubling time 6 h.
Where [3] appears, read: E. coli NCM3722 delta-hslV, growth: N-lim chemostat, doubling time 6 h.
The mark [4] stands for this setting: E. coli NCM3722 delta-lon, growth: N-lim chemostat, doubling time 6 h.
Setting [5] is: E. coli NCM3722 delta-smpB, growth: N-lim chemostat, doubling time 6 h.
Setting [6] is: wild type E. coli NCM3722, growth: C-lim chemostat, doubling time 3 h.
The mark [7] stands for this setting: wild type E. coli NCM3722, growth: C-lim chemostat, doubling time 6 h.
Setting [8] is: wild type E. coli NCM3722, growth: C-lim chemostat, doubling time 12 h.
[9] abbreviates: wild type E. coli NCM3722, growth: N-lim chemostat, doubling time 6 h.
[10] abbreviates: wild type E. coli NCM3722, growth: N-lim chemostat, doubling time 12 h.
Where [11] appears, read: wild type E. coli NCM3722, growth: P-lim chemostat, doubling time 6 h.
Where [12] appears, read: wild type E. coli NCM3722, growth: P-lim chemostat, doubling time 12 h.

± gives the standard deviation of the averaged measurements.

In the case of “MSQHNEKNPHQHQSPLHDSSEAKPGMDSLAPEDGSHRPAAEPTPPGAQPTAPGSLKAPDTRNEKLNSLEDVRKGSENYALTTNQGVRIADDQNSLRAGSRGPTLLEDFILREKITHFDHERIPERIVHARGSAAHGYFQPYKSLSDITKADFLSDPNKITPVFVRFSTVQGGAGSADTVRDIRGFATKFYTEEGIFDLVGNNTPIFFIQDAHKFPDFVHAVKPEPHWAIPQGQSAHDTFWDYVSLQPETLHNVMWAMSDRGIPRSYRTMEGFGIHTFRLINAEGKATFVRFHWKPLAGKASLVWDEAQKLTGRDPDFHRRELWEAIEAGDFPEYELGFQLIPEEDEFKFDFDLLDPTKLIPEELVPVQRVGKMVLNRNPDNFFAENEQAAFHPGHIVPGLDFTNDPLLQGRLFSYTDTQISRLGGPNFHEIPINRPTCPYHNFQRDGMHRMGIDTNPANYEPNSINDNWPRETPPGPKRGGFESYQERVEGNKVRERSPSFGEYYSHPRLFWLSQTPFEQRHIVDGFSFELSKVVRPYIRERVVDQLAHIDLTLAQAVAKNLGIELTDDQLNITPPPDVNGLKKDPSLSLYAIPDGDVKGRVVAILLNDEVRSADLLAILKALKAKGVHAKLLYSRMGEVTADDGTVLPIAATFAGAPSLTVDAVIVPCGNIADIADNGDANYYLMEAYKHLKPIALAGDARKFKATIKIADQGEEGIVEADSADGSFMDELLTLMAAHRVWSRIPKIDKIPA”, the “total protein half-life in vivo” value was found to be 6.34 ± 0.49 h under setting [1]; 6.14 ± 0.56 h under setting [2]; 5.76 ± 0.4 h under setting [3]; 5.78 ± 0.094 h under setting [4]; 5.28 ± 0.077 h under setting [5]; 2.79 ± 0.4 h under setting [6]. The “total protein half-life in vivo” value is, setting by setting: under setting [7], 5.76 ± 0.23 h; under setting [8], 10.8 ± 0.26 h; under setting [9], 5.81 ± 0.24 h; under setting [10], 12.3 ± 1.9 h; under setting [11], 5.88 ± 0.41 h; under setting [12], 11.9 ± 0.53 h.

Take “MIRQRRRALTPEQQQEMGQQAATRMMTYPPVVMAHTVAVFLSFDGELDTQPLIEQLWRAGKRVYLPVLHPFSAGNLLFLNYHPQSELVMNRLKIHEPKLDVRDVLPLSRLDVLITPLVAFDEYGQRLGMGGGFYDRTLQNWQHYKTQPVGYAHDCQLVEKLPVEEWDIPLPAVVTPSKVWEW [P0AC28]”: the “total protein half-life in vivo” value was found to be 4.93 ± 0.7 h under setting [1]; 3.88 ± 0.18 h under setting [2]; 2.6 ± 0.54 h under setting [4]; 2.58 h under setting [5]; 2.75 ± 0.068 h under setting [6]; 4.81 ± 0.41 h under setting [7]. Besides, the “total protein half-life in vivo” value is, setting by setting: under setting [8], 7.66 ± 1.6 h; under setting [9], 2.59 h; under setting [10], 4.35 h; under setting [11], 3.85 ± 0.24 h; under setting [12], 7.8 ± 0.34 h.

“MNDAIPRPQAKTRKALTPLLEIRNLTKSYDGQHAVDDVSLTIYKGEIFALLGASGCGKSTLLRMLAGFEQPSAGQIMLDGVDLSQVPPYLRPINMMFQSYALFPHMTVEQNIAFGLKQDKLPKAEIASRVNEMLGLVHMQEFAKRKPHQLSGGQRQRVALARSLAKRPKLLLLDEPMGALDKKLRDRMQLEVVDILERVGVTCVMVTHDQEEAMTMAGRIAIMNRGKFVQIGEPEEIYEHPTTRYSAEFIGSVNVFEGVLKERQEDGLVLDSPGLVHPLKVDADASVVDNVPVHVALRPEKIMLCEEPPANGCNFAVGEVIHIAYLGDLSVYHVRLKSGQMISAQLQNAHRHRKGLPTWGDEVRLCWEVDSCVVLTV”: the “total protein half-life in vivo” value is 6.49 ± 0.28 h under setting [1]; 6.64 ± 0.65 h under setting [2]; 5.74 ± 0.33 h under setting [3]; 6.22 ± 0.67 h under setting [4]; 5.84 ± 0.35 h under setting [5]; 2.93 ± 0.054 h under setting [6]. The “total protein half-life in vivo” value turned out to be 5.92 ± 0.21 h under setting [7]; 11.2 ± 0.37 h under setting [8]; 5.64 ± 0.26 h under setting [9]; 11.5 ± 0.22 h under setting [10]; 6.222 ± 0.037 h under setting [11]; 11.8 ± 1.3 h under setting [12].

For the sequence “MSDNIRVGLIGYGYASKTFHAPLIAGTPGQELAVISSSDETKVKADWPTVTVVSEPKHLFNDPNIDLIVIPTPNDTHFPLAKAALEAGKHVVVDKPFTVTLSQARELDALAKSLGRVLSVFHNRRWDSDFLTLKGLLAEGVLGEVAYFESHFDRFRPQVRDRWREQGGPGSGIWYDLAPHLLDQAITLFGLPVSMTVDLAQLRPGAQSTDYFHAILSYPQRRVILHGTMLAAAESARYIVHGSRGSYVKYGLDPQEERLKNGERLPQEDWGYDMRDGVLTRVEGEERVEETLLTVPGNYPAYYAAIRDALNGDGENPVPASQAIQVMELIELGIESAKHRATLCLA”, the “total protein half-life in vivo” value reads like this: under setting [1], 5.37 ± 0.71 h; under setting [2], 4.69 ± 0.12 h; under setting [3], 4.729 ± 0.033 h; under setting [4], 5.58 ± 0.43 h; under setting [5], 4.176 ± 0.0077 h; under setting [6], 3.26 ± 0.26 h. Further, the “total protein half-life in vivo” value is 5.54 ± 0.26 h under setting [7]; 9.43 ± 2.6 h under setting [8]; 5.05 ± 0.36 h under setting [9]; 10.5 ± 0.45 h under setting [10]; 5.48 ± 0.27 h under setting [11]; 13.8 ± 0.79 h under setting [12].

“MNDTYQPINCDDYDNLELACQHHLMLTLELKDGEKLQAKASDLVSRKNVEYLVVEAAGETRELRLDKITSFSHPEIGTVVVSES [P0AFW8]”: the “total protein half-life in vivo” value runs as follows: under setting [2], 4.86 ± 0.14 h; under setting [3], 1.83 h; under setting [4], 2.15 ± 0.34 h; under setting [5], 1.79 ± 0.12 h; under setting [7], 1.91 h; under setting [8], 3.49 ± 0.41 h. Besides, the “total protein half-life in vivo” value reads like this: under setting [9], 2.05 ± 0.44 h; under setting [10], 3.37 h; under setting [11], 3.17 ± 1.2 h; under setting [12], 5.3 ± 1.6 h.

Turning to “MSRKDLANAIRALSMDAVQKANSGHPGAPMGMADIAEVLWNDFLKHNPTDPTWYDRDRFILSNGHASMLLYSLLHLTGYDLPLEELKNFRQLHSKTPGHPEIGYTPGVETTTGPLGQGLANAVGLAIAERTLAAQFNQPDHEIVDHFTYVFMGDGCLMEGISHEVCSLAGTLGLGKLIGFYDHNGISIDGETEGWFTDDTAKRFEAYHWHVIHEIDGHDPQAVKEAILEAQSVKDKPSLIICRTVIGFGSPNKAGKEEAHGAPLGEEEVALARQKLGWHHPPFEIPKEIYHAWDAREKGEKAQQSWNEKFAAYKKAHPQLAEEFTRRMSGGLPKDWEKTTQKYINELQANPAKIATRKASQNTLNAYGPMLPELLGGSADLAPSNLTIWKGSVSLKEDPAGNYIHYGVREFGMTAIANGIAHHGGFVPYTATFLMFVEYARNAARMAALMKARQIMVYTHDSIGLGEDGPTHQAVEQLASLRLTPNFSTWRPCDQVEAAVGWKLAVERHNGPTALILSRQNLAQVERTPDQVKEIARGGYVLKDSGGKPDIILIATGSEMEITLQAAEKLAGEGRNVRVVSLPSTDIFDAQDEEYRESVLPSNVAARVAVEAGIADYWYKYVGLKGAIVGMTGYGESAPADKLFPFFGFTAENIVAKAHKVLGVKGA”, the “total protein half-life in vivo” value is 4.98 ± 0.07 h under setting [1]; 5.07 ± 0.55 h under setting [2]; 4.95 ± 0.06 h under setting [3]; 5.06 ± 0.13 h under setting [4]; 4.75 ± 0.27 h under setting [5]; 3.08 ± 0.16 h under setting [6]. The “total protein half-life in vivo” value under setting [7] came out at 5.63 ± 0.22 h; the “total protein half-life in vivo” value under setting [8] stood at 10.8 ± 0.69 h; the “total protein half-life in vivo” value under setting [9] turned out to be 4.52 ± 0.16 h; the “total protein half-life in vivo” value under setting [10] amounted to 8.32 ± 0.16 h; the “total protein half-life in vivo” value under setting [11] is 5.83 ± 0.35 h; the “total protein half-life in vivo” value under setting [12] came to 11.5 ± 0.12 h.
